# Laboratory results from patent US20230183322A1 (PEKING UNIVERSITY, published 2023).
# Substitutions are numbered along the chain they refer to.
# B1: ABU-367 (antibody, V domains shown)
# VH: EVQLVESGGGLIQPGGSLRLSCAASGIIVSSNYMTWVRQAPGKGLEWVSVIYSGGSTFYADSVKGRFTISRDNSKNTLYLQMSSLRAEDTAVYYCARDLGPYGMDVWGQGTTVTVSS
# VL: DIQLTQSPSFLSASVGDRVTITCRASQGISSDLAWYQQKPGKAPNLLIYAASTLQSGVPSRFSGSGSGTEFTLTISSLQPEDFATYYCQQLNSDLYTFGQGTKLEIK
# B2: ABU-369 (antibody, V domains shown)
# VH: B1 VH with I27L, I28T, T35S, S83N, G100Y, P101Y
# VL: AIQLTQSPSSLSASVGDRVTITCRASQGISSYLAWYQQKPGKAPKLLIFAASTLQSGVPSRFSGSGSGTDFTLTISSLQPEDFATYYCQQLDSYPLFGGGTKVEIK
# B3: antigen-binding unit ABU-367 (antibody, V domains shown)
# VH: B1 VH
# VL: B1 VL
# B4: ABU-368 (antibody, V domains shown)
# VH: B1 VH with I27F, I28T, T35S, S83N, P101A
# VL: B1 VL with D32Y, N45K
# B5: ABU-372 (antibody, V domains shown)
# VH: EVQLVESGGGLVQPGGSLRLSCAASGVTVSRNYMSWVRQAPGKGLEWVSVIYSGGSTDYADSVKGRFTISRHNSKNTLYLQMNSLRVEDTAVYYCARDGYGMDVWGQGTTVTVSS
# VL: B1 VL with D32Y, D94Y, L95P, Y96P, T97A, Q100P, L104V, E105D
# B6: ABU-395 (antibody, V domains shown)
# VH: EVQVVESGGGLVQPGGSLRLSCAASGFTVSFNYMSWVRQAPGKGLEWVSVIYPGGSTYYADSVKGRFTISRHNSKNTVYLQMNSLRAEDTAVYYCARDYGDFYFDYWGQGTLVTVSS
# VL: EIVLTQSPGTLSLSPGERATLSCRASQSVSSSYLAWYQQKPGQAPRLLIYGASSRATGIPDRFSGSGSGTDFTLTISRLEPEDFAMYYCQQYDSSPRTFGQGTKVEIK
# B7: ABU-391 (antibody, V domains shown)
# VH: B6 VH with V4L, V12I, T28I, F31S, P53S, H72D, V78L, F102Y
# VL: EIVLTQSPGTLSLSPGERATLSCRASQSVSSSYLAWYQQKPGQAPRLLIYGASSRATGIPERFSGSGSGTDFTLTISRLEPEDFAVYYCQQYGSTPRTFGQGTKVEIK
# B8: ABU-381 (antibody, V domains shown)
# VH: EVQLVESGGGLVQPGGSLRLSCAVSGFIVSRNYMTWVRQAPGKGLEWVSLIYSGGSTFYTNSVKGRFTISRDNSKNTLYLQMDSLRAEDTAVYYCARGPYPRFDYWGQGTLVTVSS
# VL: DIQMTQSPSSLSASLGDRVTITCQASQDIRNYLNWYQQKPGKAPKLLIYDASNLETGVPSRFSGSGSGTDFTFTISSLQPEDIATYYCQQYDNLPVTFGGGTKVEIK
# B9: ABU-379 (antibody, V domains shown)
# VH: EVQLVESGGGLVQPGGSLRLSCAASGFIVSSNYMSWVRQAPGKGLEWVSVIYSGGSTYYADSVKGRFTISRDNSKNTLYLRMNSLRAEDTAVYYCARAPYCSSRSCETWGQGTLVTVSS
# VL: DIQMTQSPSSLSASVGDRVTITCQASQDIRNYLNWYQQKPGKAPNLLIYDASNLETGVPSRFSGSGSGTDFTFTINSLQPEDIATYYCQQYDNLPITFGQGTRLEIK
# B10: ABU-386 (antibody, V domains shown)
# VH: EVQLVESGGGLVQPGGSLRLSCAASGVTVSSNYMSWVRQAPGKGLEWVSAVYSGGSTYYADSVKGRFTISRHNSKNTLYLQMKSLRPEDTAIYYCARLINHYYDSSGDGGAFDIWGQGTMVTVSS
# VL: QSALTQPASVSGSPGQSITISCTGTSSDVGSYNLVSWYQQRPGKAPKLILYEVTKRPSGVSNRFSGSKSGNTASLAISGLQAEDEADYYCCSYAGSSTWVFGGGTKLTVL
# B11: ABU-373 (antibody, V domains shown)
# VH: EVQLVESGGGLIQPGGSLRLSCAASGITVSSNYMSWVRQAPGKGLEWVSVIYSGGSTYYADSVKGRFTISRDNSKNTLYLQMNSLRAEDTAVYYCARGGAYYYGMDVWGQGTTVTVSS
# VL: DIQLTQSPSFLSASVGDRVTITCRASQGISSYLAWYQQKPGKAPKLLIYAASTLQSGVPSRFSGSGSGTEFTLTISSLQPEDFATYYCQQLNTYPPFGFGPGTKVDIK
# B12: antigen-binding unit ABU-190 (antibody, V domains shown)
# VH: B11 VH with Y58D, N73K, G98D, G99L, A100G, Y101E, Y102A, Y103G
# VL: AIQLTQSPSSLSASVGDRVTITCRASQGISSYLAWYQQKPGKAPKLLIYAASTLQSGVPSRFSGSGSGTDFTLTISSLQPEDFATYYCQQLNSYPPAFGGGTKVEIK
# B13: ABU-377 (antibody, V domains shown)
# VH: QVQLVESGGGLVQPGGSLRLSCAASGLIVSSNYMSWVRQAPGEGLEWVSVIYSGGSTYYADSVKGRFTISRDTSKNTLYLQMNSLRAEDTAVYYCARARIYTYGPDYWGQGTLVTVSS
# VL: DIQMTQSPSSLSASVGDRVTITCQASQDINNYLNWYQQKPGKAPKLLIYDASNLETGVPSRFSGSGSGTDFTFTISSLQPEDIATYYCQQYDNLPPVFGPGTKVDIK
# B14: ABU-375 (antibody, V domains shown)
# VH: B5 VH with V27L, R31S, D58F, H72D, L85V, V87A, D98L, G99P
# VL: DIQMTQSPSSLSASVGDRVTITCQASQDVSKYLNWYQQKPGKAPKLLIHDASNLQTGVPSRFSGGGSGTDFTFTISSLQPEDIATYYCQQYDNLPVTFGGGTKVEIK
# B15: ABU-376 (antibody, V domains shown)
# VH: B5 VH with V27L, R31S, E46N, D58Y, H72D, Q81E, R86K, V87P, D98L, G99P
# VL: B9 VL with N45K, Y49H, S63I, N76S
# B16: ABU-380 (antibody, V domains shown)
# VH: EVQLVESGGGLVQPGGSLRLSCAASGFTVSSNYMSWVRQAPGKGLEWVSLIYPGGSTYYADSVEGRFTISRDNSKNTLYLQMNSLRAEDTAVYYCAREIRVITPVEVWGQGTLVTVSS
# VL: B9 VL with R30N, N31K, Q38L, N76S, Q89H, I96R, R103K, L104V
# B17: antigen-binding unit ABU-297 (antibody, V domains shown)
# VH: EVQLLESGGGVVQPGGSLRLSCAASGFAFTTYAMNWVRQAPGRGLEWVSAISDGGGSAYYADSVKGRFTISRDNSKNTLYLQMNSLRAEDTAVYYCAKTRGRGLYDYVWGSKDYWGQGTLVTVSS
# VL: not shown
# B18: antigen-binding unit ABU-174 (antibody, V domains shown)
# VH: QVQLQQWGAGLLKPSETLSLTCAVYGGSFSDYYWNWIRRPPGKGLEWIGEITHSGSTNYNPSLKSRVTISVDTSKNQFSLKLSSVTAADTAVYYCARGQGYGRVLLWFGEWGQGTLVTVSS
# VL: EIVLTQSPATLSLSPGERATLSCRASQSVSTYLAWYQQKPGQAPRLLIYDASNRATGIPARFSGSGSGTDFTLTISSLEPEDFAVYYCQQRSNWITFGQGTRLEIK
# B19: ABU-392 (antibody, V domains shown)
# VH: B6 VH with V4L, V12I, G26E, T28I, F31R, P53S, H72D, V78L, Y79N, F102Y
# VL: EIVLTQSPGTLSLSPGERATLSCRASQGVSSFLAWYQQKPGQAPRLLIHGASSRATGIPDRFSGSGSGTDFTLTITRLEPEDFAVYYCQQYGSSPRTFGQGTKVEIK
# Tests used:
# [1] = biological target: S protein of the novel coronavirus SARS-CoV-2 (SARS-CoV-2, UniProt P0DTC2 14-1273); experiment: cell-based or functional assay
# [2] = biological target: biotin-labeled SARS-COV-2 RBD domain (SARS-CoV-2, UniProt P0DTC2 319-541); experiment: SPR, Biacore T200, biotin-RBD on SA chip, antibody as analyte
# [3] = biological target: biotin-labeled SARS-COV-2 RBD domain (SARS-CoV-2, UniProt P0DTC2 319-541); experiment: SPR, Biacore T200, biotin-labeled RBD on SA chip, antibody as analyte, 1:1 model
# [4] = biological target: spike protein (Spike, S protein) of SARS-CoV-2 (SARS-CoV-2, UniProt P0DTC2 14-1273); experiment: cell-based or functional assay
Binder,"IC50 for neutralizing SARS-CoV-2 pseudovirus (Huh-7 cells, luciferase) [1]",Kd [2],Kd [3],"IC50, Plaque Reduction Neutralization Test (PRNT), SARS-CoV-2 euvirus [4]"
B1,< 0.1 µg/mL,< 1 nM,,
B2,< 0.1 µg/mL,< 10 nM,,
B3,,,0.18 nM,
B4,< 0.5 µg/mL,< 20 nM,,
B5,< 0.5 µg/mL,< 20 nM,,
B6,< 0.1 µg/mL,< 10 nM,,
B7,< 1 µg/mL,< 20 nM,,
B8,< 0.1 µg/mL,< 1 nM,,
B9,< 0.5 µg/mL,< 10 nM,,
B10,< 0.1 µg/mL,< 10 nM,,
B11,< 0.5 µg/mL,< 10 nM,,
B12,,,,0.8 µg/mL
B13,< 0.5 µg/mL,< 10 nM,,
B14,< 0.1 µg/mL,< 10 nM,,
B15,< 0.1 µg/mL,< 10 nM,,
B16,< 0.1 µg/mL,< 1 nM,,
B17,,,0.824 nM,
B18,,,,0.5 µg/mL
B19,< 0.1 µg/mL,< 10 nM,,
